Assay results published in publication PMC2593702, “Purification, crystallization and X-ray structures of the two manganese superoxide dismutases from Caenorhabditis elegans” (Acta Crystallographica Section F, 2008).

Target: the molecule itself
Experiment: SEC; gel-filtration chromatography of the pure proteins; Sephacryl S-200, 10 mM Tris-HCl pH 8.0, 0.15 M NaCl, 0.8 ml/min; results not shown

Protein	stoichiometry N
Caenorhabditis elegans manganese superoxide dismutase MnSOD-2 (enzyme, N-terminal methionine of the expression construct, retained in the purified protein by mass spectrometry; Superoxide dismutase [Mn]; Expressed without a histidine tag; Cloning is as in Hunter et al., 1997) MKHSLPDLPYDYADLEPVISHEIMQLHHQKHHATYVNNLNQIEEKLHEAVSKGNVKEAIALQPALKFNGGGHINHSIFWTNLAKDGGEPSAELLTAIKSDFGSLDNLQKQLSASTVAVQGSGWGWLGYCPKGKILKVATCANQDPLEATTGLVPLFGIDVWEHAYYLQYKNVRPDYVNAIWKIANWKNVSERFAKAQQ	4
Caenorhabditis elegans manganese superoxide dismutase MnSOD-3 (enzyme, N-terminal methionine of the expression construct, retained in the purified protein by mass spectrometry; Superoxide dismutase [Mn]; Expressed without a histidine tag; Cloning is as in Hunter et al., 1997) MKHTLPDLPFDYADLEPVISHEIMQLHHQKHHATYVNNLNQIEEKLHEAVSKGNLKEAIALQPALKFNGGGHINHSIFWTNLAKDGGEPSKELMDTIKRDFGSLDNLQKRLSDITIAVQGSGWGWLGYCKKDKILKIATCANQDPLEGMVPLFGIDVWEHAYYLQYKNVRPDYVHAIWKIANWKNISERFANARQ	4
